Reference: patent US20230349919A1 (Regeneron, published 2023)

T1: Der p 2 (house dust mite, UniProt P49278 18-146)
T1 construct: Also used oligonucleotide-barcoded for cell staining
T1 sequence (looked up): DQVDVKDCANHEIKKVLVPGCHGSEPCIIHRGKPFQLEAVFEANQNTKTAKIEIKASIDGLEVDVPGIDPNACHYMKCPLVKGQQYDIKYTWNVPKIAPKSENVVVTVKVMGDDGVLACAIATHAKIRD

T2: Ole e 1 (olive, UniProt P19963 1-145)
T2 construct: Also used oligonucleotide-barcoded for cell staining; also called olive allergen; negative control allergen
T2 sequence (looked up): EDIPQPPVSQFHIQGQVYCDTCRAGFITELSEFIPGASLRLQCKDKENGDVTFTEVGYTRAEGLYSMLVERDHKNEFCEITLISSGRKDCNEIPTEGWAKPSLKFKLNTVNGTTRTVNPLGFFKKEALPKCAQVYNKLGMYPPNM


How the values were obtained:
[1] = target: T3, human IL-4Rα (hIL-4Rα) monomeric protein (human, UniProt P24394 26-232, limits assumed); experiment: barcoded-antigen count on source cell (scRNA-seq)
T3 construct: also called hIL-4Rα antigen; barcoded hIL-4Rα

[2] = target: T3, human IL-4Rα (hIL-4Rα) monomeric protein; experiment: Biacore (SPR)
[3] = target: T3, human IL-4Rα (hIL-4Rα) monomeric protein; experiment: Biacore (SPR); negative log10 of Kd
[4] = target: T1, Der p 2; experiment: centered log-ratio of barcode count
Text: (§1) The barcoded antigen library was mapped by the CellRanger software to a custom short-read reference that contained the DNA tag sequences of the four barcoded antigens, namely, Der p 1, Der p 2, Der f 1 and Ole e 1. These tag sequences were quantified across all cells and were normalized by taking the centered log-ratio (CLR) per barcoded antigen across each sample capture. In addition, background antigen signal for each barcoded antigen was removed by DSB (Denoised and Scaled by Background). Both the CLR and the DSB normalized values were used to quantify the target antigen signals, namely, those for Der p 1, Der p 2 and Der f 1, against the control signal, namely, that for Ole e 1.

[5] = target: T2, Ole e 1; experiment: centered log-ratio of barcode count
Text: as §1

[6] = target: T1, Der p 2; experiment: barcoded-antigen count on source cell
[7] = target: T2, Ole e 1; experiment: barcoded-antigen count on source cell
[8] = target: T1, Der p 2; experiment: barcode rank score against control Ole e 1
[9] = target: T1, Der p 2; experiment: ELISA, coated Der p2
Experimental: After selecting allergen-specific antibodies, relative binding to Der p 1, Der p 2, and Der f 1 were quantified by ELISA. […] Specifically, binding microtiter plates were coated with 100 μl of 2 μg/mL of natural Der p 1, Der p 2, Der f 1, and Ole e 1 in PBS overnight at 4′C. IgE antibodies were prepared at a concentration of 1 μg/mL and serially diluted three-fold in PBS with 0.5% w/v BSA. After washing with 0.05% v/v Tween® 20 in PBS and blocking in PBS with 0.5% w/v BSA, 100 μl of the diluted IgE antibodies were transferred to the plates and incubated for one hour at ambient temperature. Subsequently, 100 μL of anti-mouse IgE antibody conjugated to horse-radish peroxidase (HRP) diluted at 1:5000 was added. The plates were then incubated for one hour at ambient temperature, and washed in 0.05% v/v/Tween® 20 in PBS. Subsequently, the HRP substrate 3,3′,5,5′-tetramethylbenzidine (TMB) was added. The reaction was stopped (with 100 μL of sulfuric acid 2.0 N) and optical density values determined using a plate reader at 450 nm.

| REGN560.L15_ab_raw [1] [counts] | Kd [2] [nM] | negLog10Kd [3] | Derp2_ab_clr [4] | Olee1_ab_clr [5] | Derp2_ab_raw [6] [counts] | Olee1_ab_raw [7] [counts] | Derp2_ab_rank [8] | Binder | binding result [9] |
| --- | --- | --- | --- | --- | --- | --- | --- | --- | --- |
| 4410 | 23.8 | 7.62 | – | – | – | – | – | Table 1 Line # 5 antibody (BM_Plasma_cell) (antibody, V domains shown, Cloned with human IgG4/human Igk constants for Kd; barcode counts are of the source cell's own IgG) VH: QVQLVQSGAEVKKPGASVKVSCKASGYTFTGYYIYWVRQAPGQGLEWMGWINPNSGGTNYAQKFQGRVTMTRDTSISTVYMELSRLRSDDAAVYYCAKRKRGLDGWGQGTTVTVSS VL: not shown | – |
| 7910 | 58.1 | 7.24 | – | – | – | – | – | Table 1 Line # 32 antibody (SP_B_cell) (antibody, human IgG4, V domains shown, Cloned with human IgG4/human Igk constants for Kd; barcode counts are of the source cell's own IgG) VH: EVQLVESGGGLVQPGRSLRLSCAASGFTFDDYAMHWVRQAPGKGLEWVSGVNWNGVSLGYADSVKGRFTISRDNAKNSLYLQMNSLRAEDTAFYYCAKDSGSYHYYYGMDGWGQGTTVTVSS VL: DIQMTQSPSSLSASVGDRVTITCRASQGIRNDLGWYQQKPGKDPKRLIFAATNLHGGVPSRFSGGVSGTEFTLTISSLQPEDFATYYCLQHNSYPLTFGGGTKVEIK | – |
| 4140 | 136 | 6.87 | – | – | – | – | – | Table 1 Line # 6 antibody (BM_Plasma_cell) (antibody, human IgG4, V domains shown, Cloned with human IgG4/human Igk constants for Kd; barcode counts are of the source cell's own IgG) VH: EVQLVESGGDLVQPGRSLRLSCAASGFTFDDYAMHWVRQAPGKGLEWVSGISWNGNSLGYVDSVKGRFTVSRDNAKNSLYLQMNSLRAEDTALYYCTKDTGSYHSYYGLDVWGQGTTVTVSS VL: DIQMTQSPSSLSASVGDRVTITCRASQGIRNDLGWYQQKPGKAPKRLIYAASSLPSGVPSRFSGSGSGTEFTLTISSLQPEDFATYYCLQLNTYPLTFGGGTKVEIK | – |
| – | – | – | 1.62 | 0.0287 | 46 | 1 | 0.858 | IgE mAb 13_2 (antibody, V domains shown, IgE (IGHE, IGKC) from HDM-exposed mouse, LymphNode) VH: EVQLQQSGPELVKPGASVKISCKASGYTFTDYYMNWVKQSHGKSLEWIGDINPNNGGTSYNQKFKGKATLTVDKSSSTAYMELRSLTSEDSAVYYCAYGPPRGPPWFAYWGQGTLVTVSA VL: DIVLTQSPASLAVSLGQRATISCRASKSVSTSGYSYMHWYQQKPGQPPKLLIYLASNLESGVPARFSGSGSGTDFTLNIHPVEEEDAATYYCQHSRELPWTFGGGTKLEIK | – |
| – | – | – | 0.655 | -1.13 | 22 | 0 | 0.837 | IgE mAb 8_2 (antibody, V domains shown, IgE (IGHE, IGKC) from HDM-exposed mouse, BoneMarrow) VH: QVLLKESGPGLVAPSQSLSITCTVSGFSLTSYGVSWVRQPPGKGLEWLGVIWGDGNTDYHSALISRLSIRKDNSKSQVFLKLNSLQTDDTATYYCAIGSPFAYWGQGTLVTVSA VL: DVLMTQTPLSLPVSLGDQVSISCRSSQNIVHSTGNTYLEWYLQKPGQSPKLLIFKVSNRLSGVPDRFSGSGSGTDFTLNISRVEAADLGIYSCFQGSHVPFTFGSGTKLEIK | – |
| 10800 | 207 | 6.68 | – | – | – | – | – | Table 1 Line # 24 antibody (SP_B_cell) (antibody, human IgG4, V domains shown, Cloned with human IgG4/human Igk constants for Kd; barcode counts are of the source cell's own IgG) VH: EVQLVESGGDLVQPGTSLRLSCAASGFTFDDYAMHWVRQTPGQGLEWVSGINWNSGTIGYADSVKGRFTISRDNAKNSLFLQMNSLRAEDSAFYYCTKDIGGSYYASDFWGQGTLVTVSS VL: DIQMTQSPSSLSASVGDRVTITCRASQRISTDLNWYQQKSGKAPNLLIYGASSLQSGVPSRFSGSGSGTDFILTISTLQPEDFATYYCQQSYSTPFTFGPGTKVDIK | – |
| 9450 | 146 | 6.84 | – | – | – | – | – | Table 1 Line # 28 antibody (SP_B_cell) (antibody, human IgG4, V domains shown, Cloned with human IgG4/human Igk constants for Kd; barcode counts are of the source cell's own IgG) VH: not shown VL: DIQMTQSPSSVSASVGDRVTITCRASQGISSWFAWYQQKPGKAPKLLIYAASSLLSGVPSRFSGSGSGTDFTLTISSLQPEDFATYYCQQANSFPFTFGPGTKVDFK | – |
| 9190 | 54.8 | 7.26 | – | – | – | – | – | Table 1 Line # 29 antibody (SP_B_cell) (antibody, V domains shown) VH: EVQLLESGGGLVQPGGSLRLSCAASGFTFSSYAMSWVRQAPGKGLEWVSAISGSGGSTYYADSVKGRFTISRDNSKNTLYLQMNSLRAEDTAIYYCARYGNWNYIWGQGTLVTVSS VL: DIQMTQSPSSVSASVGDRVTITCRASQGISSWLAWYQQKPGKAPKLLIYAASSLQSGVPSRFSGSGSGTDFTLTISSLQPEDFATYYCQQANSFPLTFGGGTKVEIK | – |
| 2060 | 12.1 | 7.92 | – | – | – | – | – | Table 1 Line # 19 antibody (BM_Plasma_cell) (antibody, human IgG4, V domains shown, Cloned with human IgG4/human Igk constants for Kd; barcode counts are of the source cell's own IgG) VH: EVQLVESGGGLVQPGRSLRLSCAASGFTFDDFAMHWVRQEPGKGLEWVSGISWNGGNIGYADSVKGRFTISRDNAKNSLYLQMNSLRAEDTAFYYCAKDVSSAWYGYFDYWGQGTLVTVSS VL: DIQMTQSPSTLSASVGDRVTITCRASQSVSSWLAWYQQKPGKAPKLLIYKASSLESGVPLRFSGSGSGTEFTLTISSLQPDDFATYYCQVYNSDSRTFGQGTKVEIK | – |
| 6320 | 537 | 6.27 | – | – | – | – | – | Table 1 Line # 3 antibody (BM_Plasma_cell) (antibody, human IgG4, V domains shown, Cloned with human IgG4/human Igk constants for Kd; barcode counts are of the source cell's own IgG) VH: EVQLVESGGGLVQPGRSLRLSCAASGFTFDDYAMHWVRQVTGKGLEWVSGINWNSGNIGYADSVRGRFTISRDNAKNSLYLQMNSLRAEDTALYYCAKDSGSSWYGYFDLWGRGTLVTVSS VL: DIQMTQSPSTLSASVGDRVTITCRASQSISRWLAWYQQKPGKAPKFLIYKASSLESGVPSRFSGSGSGTEFTLTISSLQPDDFATYYCQQYNSDSRTFGQGTKVEIK | – |
| – | – | – | 0.58 | 0.603 | 6 | 3 | 0.336 | IgE mAb 17_2 (antibody, V domains shown, IgE (IGHE, IGKC) from HDM-exposed mouse, LymphNode) VH: EVHLQQSGPDLVKPGASVMISCQASGYSFTAYYINWVKQSPEKSLEWIGEINPGSGGVIYNRKFEAKATLIVDKSSNTAFMLLTRLTSEDSAIYYCARKGFYQFDYWGQGTTLTVSS VL: SVVMTQIPKFLVVSAGDRVTITCKASQSVNDGVFWYQQKTGQSPKLVIYHTSNRYTGVSDRFTGSGYGTEFTFTISAVQSEDLAIYFCQQDYTSPLTFGGGTRLEIK | no binding (tested: about 6e-9 M (log10 M about -8.25)) |
| 10400 | 112 | 6.95 | – | – | – | – | – | Table 1 Line # 26 antibody (SP_B_cell) (antibody, human IgG4, V domains shown, Cloned with human IgG4/human Igk constants for Kd; barcode counts are of the source cell's own IgG) VH: QVQLQQSGPGLVKPSQTLSLTCAISGDSVSSNIATWNWIRQSPSRGLECLGRTYYRSKWYSDYAVSVKSRITINPDTSKNQFSLQLNSVTPEDTAVYYCARGWNYGYYFDYWGQGTLVTVSS VL: not shown | – |
| 10600 | 97.6 | 7.01 | – | – | – | – | – | Table 1 Line # 25 antibody (SP_B_cell) (antibody, human IgG4, V domains shown, Cloned with human IgG4/human Igk constants for Kd; barcode counts are of the source cell's own IgG) VH: EVQLVESGGTVERPGGSLRLSCAASGFTFDDYGMSWVRQAPGKGLEWVSGTSWNGGHIGYADSVKGRFIISRDNAKNSLYLQINSLRVEDTALYYCTRDSTSSWYGVFDFWGQGTLVTVSS VL: DIQMTQSPSSLSASVGDRVTITCRASQDISINLAWYQQKPGKTPKLLIYAAASTLQSGVPSRFSGSGSGTDFTLTISSLQPEDVATYYCQNYNSAPRTFGQGTKVEIK | – |
| 17400 | 177 | 6.75 | – | – | – | – | – | Table 1 Line # 21 antibody (SP_B_cell) (antibody, human IgG4, V domains shown, Cloned with human IgG4/human Igk constants for Kd; barcode counts are of the source cell's own IgG) VH: EVQLVESGGGVVRPGGSLRLSCAASGFTFDDYGMSWVRQAPGKGLEWVSGINWNGGSTGYADSVKGRFTMSRDNAKKSLYLQMNSLRAEDTAFYHCARDDSSSLYGYFQHWGQGTLVTVSS VL: DIQMTQSPSSLSASVGDRVTITCRASQGISIYLAWYQQKPGKVPKLLIYAASTLQSGVPSRFSGSGSGTDFTLTISSLQPEDVATYYCQNYNSAPRTFGQGTKVEIK | – |
| 3180 | 34.5 | 7.46 | – | – | – | – | – | Table 1 Line # 12 antibody (BM_Plasma_cell) (antibody, human IgG4, V domains shown, Cloned with human IgG4/human Igk constants for Kd; barcode counts are of the source cell's own IgG) VH: QVQLVESGGGVVQPGRSLRLSCAASGFTFSSYGMHWVRQAPGKGLEWVSVISYDGSNKYYADSVKGRFTISRDNSKNTLFLQVNSLRAEDTAVYYCAKEGRTGFDYWGQGTLVTVSS VL: DIQMTQSPSSLSASVGDRVTITCRARQGISNYLAWFQQKPGKVPKLLIYAASTLQSGVPSRFSGSGSGTDFTLTISSLQPEDVATYYCQKYNSAPWTFGQGTKVEIK | – |
